In patent US20240043483A1, “TAU BIOSENSOR CELL LINES” (THE BOARD OF REGENTS OF THE UNIVERSITY OF TEXAS SYSTEM, priority 2020, published 2024):

Tests used:
[1] = target: tau RD(P301S)-mClover3 fusion (tau segment 246 to 378 with the P301S mutation, linker …, mClover3) (UniProt P10636); assay: cell-based or functional assay
[2] = target: tau RD(P301S)-mCerulean3 fusion (tau segment 246 to 378 with the P301S mutation, linker …, mCerulean3) (UniProt P10636); assay: cell-based or functional assay
tau RD(P301S)-mCerulean3 fusion (tau segment 246 to 378 with the P301S mutation, linker …, mCerulean3), sequence (P10636 other isoform, or with tags, fused parts or gaps P301S P301S P301S P301S): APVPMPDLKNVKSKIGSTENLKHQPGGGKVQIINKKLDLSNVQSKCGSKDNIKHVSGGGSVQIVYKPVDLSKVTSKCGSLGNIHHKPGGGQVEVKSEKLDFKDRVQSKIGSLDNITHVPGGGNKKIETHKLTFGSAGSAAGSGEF

tau RD(P301S)-mClover3 fusion (tau segment 246 to 378 with the P301S mutation, linker …, mClover3), sequence (P10636 other isoform, or with tags, fused parts or gaps P301S P301S P301S P301S): as above

recombinant tau fibrils made of wild-type full-length (2N4R) tau (from UniProt P10636 2-441)
seeding activity (FRET positivity) after TauA immunopurification of fibrils spiked into 1 ml control CSF [1]: 100 attomolar
seeding activity (FRET positivity) after TauA immunopurification of fibrils spiked into 1 ml control CSF [2]: 100 attomolar
